Experimental findings from article PMC4721528 are described below.

Substrate in the series: CCCCC/C=C\C/C=C\C/C=C\C/C=C\CCCC(=O)O
Kind of series: mass spectrometric product formation assay. Type of series: biochemical, Mus musculus. To be noted: 50 nM enzyme.

B1: mCOX-2 (mouse COX-2) (Mus musculus; L489M) (protein)
chain: ANPCCSNPCQNRGECMSTGFDQYKCDCTRTGFYGENCTTPEFLTRIKLLLKPTPNTVHYILTHFKGVWNIVNNIPFLRSLIMKYVLTSRSYLIDSPPTYNVHYGYKSWEAFSNLSYYTRALPPVADDCPTPMGVKGNKELPDSKEVLEKVLLRREFIPDPQGSNMMFAFFAQHFTHQFFKTDHKRGPGFTRGLGHGVDLNHIYGETLDRQHKLRLFKDGKLKYQVIGGEVYPPTVKDTQVEMIYPPHIPENLQFAVGQEVFGLVPGLMMYATIWLREHNRVCDILKQEHPEWGDEQLFQTSRLILIGETIKIVIEDYVQHLSGYHFKLKFDPELLFNQQFQYQNRIASEFNTLYHWHPLLPDTFNIEDQEYSFKQFLYNNSILLEHGLTQFVESFTRQIAGRVAGGRNVPIAVQAVAKASIDQSREMKYQSLNEYRKRFSLKPYTSFEELTGEKEMAAELKALYSDIDVMEMYPALLVEKPRPDAIFGETMVELGAPFSLKGLMGNPICSPQYWKPSTFGGEVGFKIINTASIQSLICNNVKGCPFTSFNVQDPQPTKTATINASASHSRLDDINPTVLIKRRSTEL
Consider B1, for which the Km is 1.4 ± 0.3 µM and the kcat came to 3.3 ± 0.1 s^–1.

B2: mCOX-2 (mouse COX-2) (Mus musculus) (protein)
chain: ANPCCSNPCQNRGECMSTGFDQYKCDCTRTGFYGENCTTPEFLTRIKLLLKPTPNTVHYILTHFKGVWNIVNNIPFLRSLIMKYVLTSRSYLIDSPPTYNVHYGYKSWEAFSNLSYYTRALPPVADDCPTPMGVKGNKELPDSKEVLEKVLLRREFIPDPQGSNMMFAFFAQHFTHQFFKTDHKRGPGFTRGLGHGVDLNHIYGETLDRQHKLRLFKDGKLKYQVIGGEVYPPTVKDTQVEMIYPPHIPENLQFAVGQEVFGLVPGLMMYATIWLREHNRVCDILKQEHPEWGDEQLFQTSRLILIGETIKIVIEDYVQHLSGYHFKLKFDPELLFNQQFQYQNRIASEFNTLYHWHPLLPDTFNIEDQEYSFKQFLYNNSILLEHGLTQFVESFTRQIAGRVAGGRNVPIAVQAVAKASIDQSREMKYQSLNEYRKRFSLKPYTSFEELTGEKEMAAELKALYSDIDVMELYPALLVEKPRPDAIFGETMVELGAPFSLKGLMGNPICSPQYWKPSTFGGEVGFKIINTASIQSLICNNVKGCPFTSFNVQDPQPTKTATINASASHSRLDDINPTVLIKRRSTEL
Turning to B2, the Michaelis constant (Km) is 2.3 ± 0.3 µM and the kcat was 3.1 ± 0.1 s^–1.
